From patent US20150078996A1 (Merck Sharp & Dohme, published 2015)

How the values were obtained:
[1] = target: IR (insulin receptor) expressed on baculovirus-infected Sf9 insect cells (UniProt P06213); assay: flow cytometry on Sf9 cells expressing IR, secondary antibody alone
[2] = target: IGF-IR expressed on baculovirus-infected Sf9 insect cells (UniProt P08069); assay: flow cytometry on Sf9 cells expressing IGF-IR, secondary antibody alone
[3] = target: IGF-IR expressed on baculovirus-infected Sf9 insect cells (UniProt P08069); assay: flow cytometry on Sf9 cells expressing IGF-IR
[4] = target: IR (insulin receptor) expressed on baculovirus-infected Sf9 insect cells (UniProt P06213); assay: flow cytometry on Sf9 cells expressing IR
[5] = target: full length hIGF-1R from membrane extracts of NIH 3T3 cells overexpressing IGF-1R (human) (UniProt P08069); assay: displacement of 125I-IGF-1 from hIGF-1R captured on FlashPlate
[6] = target: recombinant human IGF-1R extracellular domains (R&D Systems) (human) (UniProt P08069); assay: SPR Biacore X, 5 min injection of 8.24 µg/ml over 439 RU of amine-coupled soluble IGF-1R
[7] = target: T1, IGF-IR expressed on baculovirus-infected Sf9 insect cells (UniProt P08069 31-1367, limits assumed); assay: flow cytometry on Sf9 cells expressing IGF-IR
T1 construct: whole, on cells; also called IGF-1R + cells

[8] = target: T2, IR (insulin receptor) expressed on baculovirus-infected Sf9 insect cells (UniProt P06213 28-1382, limits assumed); assay: flow cytometry on Sf9 cells expressing IR
T2 construct: whole, on cells; also called IR + cells

[9] = target: recombinant human IGF-1R extracellular domains (R&D Systems) (human) (UniProt P08069); assay: SPR Biacore X, 5 min injection of 7.4 µg/ml over 439 RU of amine-coupled soluble IGF-1R
[10] = target: T2, IR (insulin receptor) expressed on …; assay: flow cytometry on Sf9 cells expressing IR; remark: listed apart in the source
Excerpt: At this stage of the selection process, only hybridomas secreting monoclonal antibodies that recognized both the recombinant and the native receptors were selected, cloned, produced and then purified before being tested by FACScan analysis, according to the method described above, on Sf9 insect cells expressing either IGF-IR or IR in order to eliminate hybridomas recognizing both the two receptors.

[11] = target: T3, recombinant human insulin receptor (IR) extracellular domains (R&D Systems) (human, UniProt P06213-2 28-944, limits assumed); assay: western blot after SDS-PAGE, 12B1 as probe
T3 construct: extracellular domain; also called IR ECD
Protocol: Proteins were analyzed by SDS-PAGE electrophoresis on Criterion 7% homogeneous polyacrylamide gels (BioRad, Marnes la Coquette, France) under reducing and non-reducing conditions. Equivalent quantities of 4, 20 and 100 ng were loaded for pure recombinant IR and IGF-1R ECD whereas higher protein quantities, from 0.2 to 6 μg, were needed for membrane extracts to detect IGF-1R by western blot. Proteins were transferred onto nitrocellulose membrane. […] Proteins were further detected by chemiluminescence (ECL, Amersham Biosciences, Orsay, France) after incubation with a horseradish peroxidase-conjugated anti-mouse IgG polyclonal antibody (Amersham Biosciences, 1:3,000 dilution) for 1 h at room temperature and extensive washes.

For “secondary anti-species antibody coupled to a fluorochrome (Anti-Mouse FITC)”, which MFI [1] is on record?
The MFI was 13.

And the MFI [2]?
Its MFI is 9.

Which MFI [3] does the source give for “commercially available anti-IGF-1R antibody αIR3” here?
Its MFI is 35.

What about the MFI [4] of the same molecule?
The MFI was 32.

B1: mouse monoclonal antibody 7C10 (anti-IGF-1R) (antibody, from another filing, V domains shown)
VH: DVQLQESGPGLVKPSQSLSLTCSVTGYSITGGYLWNWIRQFPGNKLEWMGYISYDGTNNYKPSLKDRISITRDTSKNQFFLKLNSVTNEDTATYYCARYGRVFFDYWGQGTTLTVSS
VL: DVLMTQIPLSLPVSLGDQASISCRSSQSIVHSNGNTYLQWYLQKPGQSPKLLIYKVSNRLYGVPDRFSGSGSGTDFTLKISSVEAEDLGVYYCFQGSHVPWTFGGGTKLEIK
With B1 as the molecule, how does the IC50 [5] read?
Its IC50 is 200 pM.

What about the response (RU) [6] of the same molecule?
Its response (RU) is 180 RU.

B2: monoclonal antibody 2D10 (antibody, V domains shown)
VH: EVNLVESGGILVKPGGSLRLSCAASGFTFSNYAMSWVRQTPEKRLEWVASIGSAGYIHYPDSVKGRFTISRDNARNILYLQMSSLRSEDTAMYYCAREGGLVWFAYWGQGTLVTVSA
VL: ETTVTQSPASLSVATGEKVTIRCITSTDIDDDMNWYQQKPGEPPKLLISEGNTLRPGVPSRFSSSGYGTDFVLTIENTLSEDVADYYCLQSDKMPLTFGAGTKLELK
Which MFI [7] does the source give for B2 here?
The MFI was 42.5.

And the MFI [8]?
The MFI was 10.6.

B3: monoclonal antibody 12D5 (antibody, V domains shown)
VH: QVQLKESGPGLVAPSQSLSITCTVSGFSLNEYGVSWIRQPPGKGLEWLGVIWGGRDTYYHSPLKSRLSITKDNSKSQVFLKMNSLQTDDTAMYYCAKHEGMDYWGQGTSVTVSS
VL: DIVMTQSQKFMSTSVGDRVSVTCKASQNVVTNVAWYQHKPGHSPKPLIYSASYRYSGVPDRFTGSGSGTDFTLTINNVQSEDLAEYFCHQYNNFPLTFGAGTKLELK
How did the MFI [7] turn out when B3 was run?
Its MFI is 50.

What about the MFI [8] of the same molecule?
Its MFI is 10.6.

B4: mouse monoclonal antibody 12B1 (anti-IGF-1R) (antibody, mouse IgG1, V domains shown)
VH: QVQLKESGPDLVAPSQSLSITCTVSGFSLTNYGVHWVRQFPGKGLEWLGVIWAGGNTNYNSALMSRLTISKDNSKSQVFLKMNSLQTDDTAVYYCAREYGSTYVAWFAHWGQGTLVTVSS
VL: ENVLTQSPAIMSASPGEKVTMTCGASSSVSSSFLHWYQQKSGASPKLWIYSTSNLASGVPTRFSGSGSGTSYSLTISSVEAEDAATYYCQQYSGYPLTFGAGTKLELK
notes: also called MAb 12B1; clone 12B1
Which results are given for B4?
response (RU) [9]: 146 RU; binding result [10]: no binding; MFI [7]: 54; binding result [11]: no binding (tested: 100 ng per lane); MFI [8]: 10.5
